Test results from US20240368617A1, “NPR1 VARIANT TO ENHANCE PLANT RESISTANCE TO BIOTIC AND ABIOTIC STRESSES AND METHOD THEREOF” (Duke University, published 2024).
Each block holds one binder with its values, some of them ahead of it.

How the values were obtained:
[1] = biological target: T1, npr1(dim)-HA (Arabidopsis thaliana, UniProt P93002 1-593); assay: co-immunoprecipitation of GFP- and HA-fused proteins with anti-HA beads, N. benthamiana, with and without SA
T1 construct: also called L49D/F53D/V56D/V83K; not shown: C-terminal HA tag from vector pLN462
T1 chain: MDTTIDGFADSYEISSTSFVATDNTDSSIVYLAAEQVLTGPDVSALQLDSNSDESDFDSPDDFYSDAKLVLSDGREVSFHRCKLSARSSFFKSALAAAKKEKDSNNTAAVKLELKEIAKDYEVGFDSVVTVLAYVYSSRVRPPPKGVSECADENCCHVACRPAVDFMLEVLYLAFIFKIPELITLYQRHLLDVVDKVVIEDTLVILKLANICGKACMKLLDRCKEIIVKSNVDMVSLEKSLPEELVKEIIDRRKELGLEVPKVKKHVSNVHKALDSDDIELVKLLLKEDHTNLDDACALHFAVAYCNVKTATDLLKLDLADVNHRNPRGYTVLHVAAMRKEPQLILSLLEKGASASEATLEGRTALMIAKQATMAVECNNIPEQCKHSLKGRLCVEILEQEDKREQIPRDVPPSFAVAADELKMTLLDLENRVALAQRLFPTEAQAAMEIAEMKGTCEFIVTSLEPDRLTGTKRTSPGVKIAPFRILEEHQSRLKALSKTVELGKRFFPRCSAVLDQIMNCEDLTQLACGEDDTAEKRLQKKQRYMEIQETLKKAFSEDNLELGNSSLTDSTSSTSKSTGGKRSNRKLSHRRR
Experimental: (§1) For plant transformations, the Agrobacterium tumefaciens strain GV3101 was transformed with plant binary vectors carrying the indicated transgenes. For stable expression in Arabidopsis, a floral dipping method was used. For transient expression in N. benthamiana, the Agrobacterium carrying the indicated construct was cultured over-night at 28° C. in LB broth medium supplemented with appropriate antibiotics: spectinomycin (100 μg ml-1), kanamycin (50 μg ml-1), gentamycin (50 μg ml-1) and rifampicin (25 μg ml-1). The obtained culture was re-inoculated at 1:10 into fresh growth medium with antibiotics and grown for another 4 h. Cells were then centrifuged at 1,600g for 10 min, and inoculum was prepared by resuspending cells to an OD600 of 1 in double-distilled water containing 200 μM acetosyringone (Sigma-Aldrich). The co-expression assays were per-formed with a 1:1 mixture of Agrobacteria inoculums. The inoculum was pressure-infiltrated into N. benthamiana leaves at the abaxial side using 1 ml syringe without the needle.
Recombinant protein analysis, co-immunoprecipitation and cell-free oligomerization were performed using total protein extracts from the transient expression assay in N. benthamiana as described previously. […]

[2] = biological target: the molecule itself; assay: size-exclusion chromatography (later elution than WT) and low-resolution cryo-EM (single-wing shape)
[3] = biological target: T2, npr1(A151P/D152R)-HA (Arabidopsis thaliana, UniProt P93002 1-593); assay: co-immunoprecipitation after transient co-expression in N. benthamiana
T2 construct: not shown: C-terminal HA tag from vector pLN462
T2 sequence: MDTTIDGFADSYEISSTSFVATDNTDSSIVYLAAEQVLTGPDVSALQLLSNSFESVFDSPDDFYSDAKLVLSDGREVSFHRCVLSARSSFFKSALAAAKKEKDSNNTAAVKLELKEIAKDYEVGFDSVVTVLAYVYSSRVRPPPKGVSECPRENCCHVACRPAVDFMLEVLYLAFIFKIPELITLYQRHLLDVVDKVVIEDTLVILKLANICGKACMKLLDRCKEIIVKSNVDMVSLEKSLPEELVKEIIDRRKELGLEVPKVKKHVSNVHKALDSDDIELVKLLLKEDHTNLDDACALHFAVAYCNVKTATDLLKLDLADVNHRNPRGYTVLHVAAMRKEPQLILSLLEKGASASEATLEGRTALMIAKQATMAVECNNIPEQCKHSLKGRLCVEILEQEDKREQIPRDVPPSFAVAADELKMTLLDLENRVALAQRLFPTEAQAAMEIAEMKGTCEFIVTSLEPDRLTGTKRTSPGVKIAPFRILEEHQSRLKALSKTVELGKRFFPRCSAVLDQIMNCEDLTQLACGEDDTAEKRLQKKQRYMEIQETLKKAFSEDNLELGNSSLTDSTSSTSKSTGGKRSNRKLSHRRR
Experimental: as §1
(§2) Recombinant protein analysis, co-immunoprecipitation and cell-free oligomerization were performed using total protein extracts from the transient expression assay in N. benthamiana as described previously. Interaction analysis of NPR1-HA with TGA3-mRFP or NPR1-GFP (self-interaction), was performed in vivo by transiently co-expressing the two proteins in N. benthamiana followed by treatment with water (mock) or 1 mM SA for 5 h. Total protein was extracted and used for co-immunoprecipitation with anti-RFP or anti-HA beads, respectively. In the NPR1-HA/TGA3-mRFP interaction experiments the npr1-1-HA was used as a negative control. Interaction between GST-NPR1 and Myc-CUL3A was performed by co-expression in E. coli as described. For western blotting under reducing conditions, the SDS sample buffer was added to the protein extracts from a 4× stock solution supplemented with 50 mM DTT and 715 mM B-mercaptoethanol. For western blotting under non-reducing conditions, a DDT-and B-mercaptoethanol-free SDS sample buffer was used. […]

[4] = biological target: T3, npr1(L281D)-HA (Arabidopsis thaliana, UniProt P93002 1-593); assay: as above
T3 construct: not shown: C-terminal HA tag from vector pLN462
T3 sequence: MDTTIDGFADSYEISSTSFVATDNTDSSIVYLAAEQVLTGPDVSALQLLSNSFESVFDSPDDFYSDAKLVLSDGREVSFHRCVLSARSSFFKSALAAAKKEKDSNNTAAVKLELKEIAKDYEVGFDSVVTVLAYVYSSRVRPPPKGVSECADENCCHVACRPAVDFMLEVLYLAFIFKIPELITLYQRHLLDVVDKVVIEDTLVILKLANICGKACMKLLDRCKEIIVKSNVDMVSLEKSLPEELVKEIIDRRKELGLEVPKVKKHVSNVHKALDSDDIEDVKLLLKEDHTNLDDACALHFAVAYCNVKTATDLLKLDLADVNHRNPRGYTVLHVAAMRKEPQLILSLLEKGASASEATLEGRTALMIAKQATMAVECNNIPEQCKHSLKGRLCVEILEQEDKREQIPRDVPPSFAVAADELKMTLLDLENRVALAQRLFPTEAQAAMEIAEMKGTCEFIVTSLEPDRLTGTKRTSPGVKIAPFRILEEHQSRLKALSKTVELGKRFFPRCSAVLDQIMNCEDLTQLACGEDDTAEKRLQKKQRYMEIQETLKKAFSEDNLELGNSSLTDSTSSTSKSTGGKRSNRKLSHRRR
Experimental: as §1, §2

[5] = biological target: T4, npr1(L284D)-HA (Arabidopsis thaliana, UniProt P93002 1-593); assay: as above
T4 construct: not shown: C-terminal HA tag from vector pLN462
T4 sequence: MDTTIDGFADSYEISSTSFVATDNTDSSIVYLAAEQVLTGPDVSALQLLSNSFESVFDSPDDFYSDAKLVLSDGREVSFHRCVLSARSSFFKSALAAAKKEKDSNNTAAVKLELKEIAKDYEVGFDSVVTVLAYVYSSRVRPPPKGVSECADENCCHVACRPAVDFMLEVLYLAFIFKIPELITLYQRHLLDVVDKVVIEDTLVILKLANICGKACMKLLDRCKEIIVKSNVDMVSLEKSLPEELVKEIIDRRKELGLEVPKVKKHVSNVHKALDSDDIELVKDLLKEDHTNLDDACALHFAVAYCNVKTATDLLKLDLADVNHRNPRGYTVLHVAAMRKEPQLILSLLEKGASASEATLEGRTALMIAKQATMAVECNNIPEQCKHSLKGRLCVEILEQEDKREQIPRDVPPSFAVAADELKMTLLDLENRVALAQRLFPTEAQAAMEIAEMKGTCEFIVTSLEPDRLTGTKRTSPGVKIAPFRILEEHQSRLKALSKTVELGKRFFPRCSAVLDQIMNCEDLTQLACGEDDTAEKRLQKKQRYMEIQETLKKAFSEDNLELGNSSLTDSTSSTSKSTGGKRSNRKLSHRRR
Experimental: as §1, §2

- binding result [1]: no binding
B1: npr1(dim)-GFP (other)
chain: MDTTIDGFADSYEISSTSFVATDNTDSSIVYLAAEQVLTGPDVSALQLDSNSDESDFDSPDDFYSDAKLVLSDGREVSFHRCKLSARSSFFKSALAAAKKEKDSNNTAAVKLELKEIAKDYEVGFDSVVTVLAYVYSSRVRPPPKGVSECADENCCHVACRPAVDFMLEVLYLAFIFKIPELITLYQRHLLDVVDKVVIEDTLVILKLANICGKACMKLLDRCKEIIVKSNVDMVSLEKSLPEELVKEIIDRRKELGLEVPKVKKHVSNVHKALDSDDIELVKLLLKEDHTNLDDACALHFAVAYCNVKTATDLLKLDLADVNHRNPRGYTVLHVAAMRKEPQLILSLLEKGASASEATLEGRTALMIAKQATMAVECNNIPEQCKHSLKGRLCVEILEQEDKREQIPRDVPPSFAVAADELKMTLLDLENRVALAQRLFPTEAQAAMEIAEMKGTCEFIVTSLEPDRLTGTKRTSPGVKIAPFRILEEHQSRLKALSKTVELGKRFFPRCSAVLDQIMNCEDLTQLACGEDDTAEKRLQKKQRYMEIQETLKKAFSEDNLELGNSSLTDSTSSTSKSTGGKRSNRKLSHRRR
notes: also called L49D/F53D/V56D/V83K; not shown: C-terminal eGFP from vector pK7FWG2

B2: npr1(dim) mutant (L49D/F53D/V56D/V83K) with C-terminal Strep tag, expressed in insect cells (other)
chain: MDTTIDGFADSYEISSTSFVATDNTDSSIVYLAAEQVLTGPDVSALQLDSNSDESDFDSPDDFYSDAKLVLSDGREVSFHRCKLSARSSFFKSALAAAKKEKDSNNTAAVKLELKEIAKDYEVGFDSVVTVLAYVYSSRVRPPPKGVSECADENCCHVACRPAVDFMLEVLYLAFIFKIPELITLYQRHLLDVVDKVVIEDTLVILKLANICGKACMKLLDRCKEIIVKSNVDMVSLEKSLPEELVKEIIDRRKELGLEVPKVKKHVSNVHKALDSDDIELVKLLLKEDHTNLDDACALHFAVAYCNVKTATDLLKLDLADVNHRNPRGYTVLHVAAMRKEPQLILSLLEKGASASEATLEGRTALMIAKQATMAVECNNIPEQCKHSLKGRLCVEILEQEDKREQIPRDVPPSFAVAADELKMTLLDLENRVALAQRLFPTEAQAAMEIAEMKGTCEFIVTSLEPDRLTGTKRTSPGVKIAPFRILEEHQSRLKALSKTVELGKRFFPRCSAVLDQIMNCEDLTQLACGEDDTAEKRLQKKQRYMEIQETLKKAFSEDNLELGNSSLTDSTSSTSKSTGGKRSNRKLSHRRR
notes: Full-length; His10-GST removed; Monomeric by size exclusion and low-resolution cryo-EM; not shown: C-terminal Strep tag
- binding result [2]: no binding

- binding result [3]: no binding
- binding result [4]: no binding
- binding result [5]: no binding
B3: TGA3-mRFP (other, Arabidopsis thaliana, UniProt Q39234 1-384, looked up)
chain: MEMMSSSSSTTQVVSFRDMGMYEPFQQLSGWESPFKSDINNITSNQNNNQSSSTTLEVDARPEADDNNRVNYTSVYNNSLEAEPSSNNDQDEDRINDKMKRRLAQNREAARKSRLRKKAHVQQLEESRLKLSQLEQELVRARQQGLCVRNSSDTSYLGPAGNMNSGIAAFEMEYTHWLEEQNRRVSEIRTALQAHIGDIELKMLVDSCLNHYANLFRMKADAAKADVFFLMSGMWRTSTERFFQWIGGFRPSELLNVVMPYVEPLTDQQLLEVRNLQQSSQQAEEALSQGLDKLQQGLVESIAIQIKVVESVNHGAPMASAMENLQALESFVNQADHLRQQTLQQMSKILTTRQAARGLLALGEYFHRLRALSSLWAARPREHT
notes: Transiently co-expressed in N. benthamiana; pulled down with anti-RFP beads; also called AtTGA3; AT1G22070; not shown: C-terminal mRFP from vector pSITE-4NB
